Patent US12642766B2, “EDB-FN as biomarker of cancer and/or brain disease and nanodrug delivery system targeting same” (KOREA UNIVERSITY RESEARCH AND BUSINESS FOUNDATION, priority 2020, dated 2026)
pKd: −log10 of the molar value. Ends that are not written are not given here.

Experiments:
[1] = molecular target: EDB-FN (Homo sapiens, UniProt P02751); details: read-out: affinity of binding to EDB-FN; cited from earlier work
[2] = test system: EDB-FN; experiment: siRNA-mediated EDB-FN knockdown confirmed by qRT-PCR; assay type: cell-based, human; details: U87MG cells; GAPDH internal control; control siRNA 1.00±0.08
Experimental: Cells were collected, and ribonucleic acid (RNA) was extracted with RiboEx using an RNA isolation kit (GeneAll, Seoul, Republic of Korea). Complementary DNA (cDNA) was synthesized by reverse transcription using a total of 1 μg of RNA from each sample. As a result, the following genes were estimated: EDB-FN gene (forward primer: 5′-[…]-3′; reverse primer: 5′-[…]-3′); glyceraldehyde 3-phosphate dehydrogenase) gene (forward primer: 5′-[…]-3′; reverse primer: 5′-[…]-3′. The polymerase chain reaction protocol was as follows: initial denaturation at 94° C. for 5 min; 30 repetitions of denaturation at 94° C. for 1 min, primer annealing at 55° C. for 1 min, and extension at 72° C. for 2 min; and final extension at 72° C. for 7 min 1 μg of cDNA was added to 4 μL of ultrapure water, 5 μL of SYBR Green real-time mixture (Takara, Tokyo, Japan) was added before performing a real-time polymerase chain reaction (Qiagen, Tokyo, Japan). The messenger RNA (mRNA) level of each gene was quantified using the 2^−ΔΔ^Ct method and normalized with the messenger RNA of glyceraldehyde 3-phosphate dehydrogenase.
EDB-FN-specific siRNA and scrambled control siRNA were purchased from Bioneer (Daejeon, Republic of Korea). The target sequence of EDB-FN siRNA used for RNA interference is as follows: sense; […], antisense; […]. […] Transfection efficacy was analyzed after 48 hours.

EDB-FN (Homo sapiens, UniProt P02751), sequence (P02751 32-2477): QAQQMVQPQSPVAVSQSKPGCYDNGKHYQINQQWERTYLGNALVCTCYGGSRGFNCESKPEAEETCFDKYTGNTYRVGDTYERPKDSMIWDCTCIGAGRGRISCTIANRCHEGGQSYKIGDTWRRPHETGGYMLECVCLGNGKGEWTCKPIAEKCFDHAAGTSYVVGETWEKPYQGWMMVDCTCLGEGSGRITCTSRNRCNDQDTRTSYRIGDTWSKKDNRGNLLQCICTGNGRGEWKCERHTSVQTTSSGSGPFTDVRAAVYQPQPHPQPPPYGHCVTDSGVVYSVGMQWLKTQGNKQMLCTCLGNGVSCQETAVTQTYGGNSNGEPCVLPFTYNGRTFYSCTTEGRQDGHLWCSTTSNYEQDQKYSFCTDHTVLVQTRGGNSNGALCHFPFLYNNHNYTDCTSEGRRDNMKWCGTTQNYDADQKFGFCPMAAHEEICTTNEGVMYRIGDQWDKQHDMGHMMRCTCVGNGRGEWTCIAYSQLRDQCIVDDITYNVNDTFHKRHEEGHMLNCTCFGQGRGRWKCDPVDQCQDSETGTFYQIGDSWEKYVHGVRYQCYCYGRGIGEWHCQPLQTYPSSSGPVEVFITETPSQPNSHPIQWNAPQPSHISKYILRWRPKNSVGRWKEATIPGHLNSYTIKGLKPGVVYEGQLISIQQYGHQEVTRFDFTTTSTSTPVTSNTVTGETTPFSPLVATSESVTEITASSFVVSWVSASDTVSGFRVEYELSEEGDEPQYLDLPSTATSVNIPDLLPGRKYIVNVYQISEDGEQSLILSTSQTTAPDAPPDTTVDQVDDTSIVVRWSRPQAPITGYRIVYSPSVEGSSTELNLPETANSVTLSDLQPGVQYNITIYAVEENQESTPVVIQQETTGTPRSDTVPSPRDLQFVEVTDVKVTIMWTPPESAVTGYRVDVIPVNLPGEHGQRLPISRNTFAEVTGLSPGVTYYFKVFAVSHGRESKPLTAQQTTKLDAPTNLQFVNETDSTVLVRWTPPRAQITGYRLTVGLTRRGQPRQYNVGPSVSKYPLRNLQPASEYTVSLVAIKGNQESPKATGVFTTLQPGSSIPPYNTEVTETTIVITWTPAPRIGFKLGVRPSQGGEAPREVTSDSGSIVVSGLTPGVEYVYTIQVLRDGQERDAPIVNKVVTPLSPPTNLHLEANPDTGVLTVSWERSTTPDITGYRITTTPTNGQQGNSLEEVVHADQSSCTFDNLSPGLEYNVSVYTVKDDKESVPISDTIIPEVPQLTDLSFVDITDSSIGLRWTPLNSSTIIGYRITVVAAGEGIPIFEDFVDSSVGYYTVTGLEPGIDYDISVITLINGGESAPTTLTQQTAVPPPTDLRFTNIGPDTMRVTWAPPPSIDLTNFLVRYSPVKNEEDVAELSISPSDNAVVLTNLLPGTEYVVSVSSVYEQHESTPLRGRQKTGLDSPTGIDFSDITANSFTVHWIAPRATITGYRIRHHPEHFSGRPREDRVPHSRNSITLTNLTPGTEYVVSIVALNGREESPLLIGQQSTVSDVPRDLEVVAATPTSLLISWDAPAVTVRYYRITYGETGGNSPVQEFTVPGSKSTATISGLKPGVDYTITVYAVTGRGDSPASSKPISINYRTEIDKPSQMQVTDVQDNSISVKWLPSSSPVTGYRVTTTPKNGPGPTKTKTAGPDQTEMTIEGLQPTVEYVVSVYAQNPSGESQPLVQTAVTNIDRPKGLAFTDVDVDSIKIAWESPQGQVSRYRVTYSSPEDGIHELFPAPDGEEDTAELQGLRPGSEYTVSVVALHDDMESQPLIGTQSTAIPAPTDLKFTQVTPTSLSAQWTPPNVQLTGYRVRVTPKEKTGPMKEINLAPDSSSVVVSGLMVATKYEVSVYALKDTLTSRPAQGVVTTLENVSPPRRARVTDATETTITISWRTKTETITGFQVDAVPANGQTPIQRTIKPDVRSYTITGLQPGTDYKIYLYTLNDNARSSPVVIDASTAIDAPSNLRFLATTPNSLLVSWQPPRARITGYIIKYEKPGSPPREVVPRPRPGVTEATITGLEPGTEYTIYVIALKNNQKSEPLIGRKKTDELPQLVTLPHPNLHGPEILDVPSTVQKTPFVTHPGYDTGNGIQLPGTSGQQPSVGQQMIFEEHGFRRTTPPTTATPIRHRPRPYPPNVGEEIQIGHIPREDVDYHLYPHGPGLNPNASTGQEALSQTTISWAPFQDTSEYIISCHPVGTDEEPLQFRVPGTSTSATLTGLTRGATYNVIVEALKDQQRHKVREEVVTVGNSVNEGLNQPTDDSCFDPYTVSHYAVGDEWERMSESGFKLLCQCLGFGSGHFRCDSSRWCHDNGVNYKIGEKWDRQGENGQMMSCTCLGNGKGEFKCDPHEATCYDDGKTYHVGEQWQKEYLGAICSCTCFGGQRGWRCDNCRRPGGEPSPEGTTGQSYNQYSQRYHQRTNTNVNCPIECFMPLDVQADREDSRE

Row | Substance | pKd [1] | EDB-FN expression (qRT-PCR) [2]
1 | N′-CSSPIQGSWTWENGK(C)WTWGIIRLEQ-C′ (CSSPIQGSWTWENGK(Cys)WTWGIIRLEQ; listed as Homo sapiens) [APTEDB, EDB-FN-specific aptamer-like peptide (aptide)] | > 7.00 | –
2 | EDB-FN siRNA: EDB-FN-specific siRNA; sense ACAGUCCCAGAUCAUGGAG, antisense CUCCAUGAUCUGGGACUGU (chemistry not given here) | – | 0.45±0.01
